These results are taken from PMC12406181 (2025).

The target of this test is T1, HER2-DIVMP (HER2 domain IV model receptor) domain IV fragment (Homo sapiens, UniProt P04626).
T1 chain: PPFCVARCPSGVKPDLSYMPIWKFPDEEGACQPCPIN
Put plainly: fluorescence spectroscopy titration.

B1: A9-PEG-A9 dimer (peptide)
chain: QDVNTAVAW
modifications: not fully specified; two A9 chains N-terminally linked via PEG (1 kDa), C-terminal amide; HER2-DIVMP is a synthetic two-chain disulfide-linked peptide
A word on the Kd: it is the constant that tells how readily two partners part at equilibrium. A high value points to a looser complex. B1: the Kd was found to be 5.7 nM.
